Two proteins from publication doi:10.1101/2025.07.06.663161 (bioRxiv, 2025) can be followed below.

Where a chain is given by its changes, count along the chain named. In names and notes the source's numbering stands.

This data set deals with the molecule itself. Put plainly: atomic force microscopy.

B1: Recombinant wild-type Cdc19, Strep-tagged (SUMO tag cleaved off) (natural protein)
chain: MSRLERLTSLNVVAGSDLRRTSIIGTIGPKTNNPETLVALRKAGLNIVRMNFSHGSYEYHKSVIDNARKSEELYPGRPLAIALDTKGPEIRTGTTTNDVDYPIPPNHEMIFTTDDKYAKACDDKIMYVDYKNITKVISAGRIIYVDDGVLSFQVLEVVDDKTLKVKALNAGKICSHKGVNLPGTDVDLPALSEKDKEDLRFGVKNGVHMVFASFIRTANDVLTIREVLGEQGKDVKIIVKIENQQGVNNFDEILKVTDGVMVARGDLGIEIPAPEVLAVQKKLIAKSNLAGKPVICATQMLESMTYNPRPTRAEVSDVGNAILDGADCVMLSGETAKGNYPINAVTTMAETAVIAEQAIAYLPNYDDMRNCTPKPTSTTETVAASAVAAVFEQKAKAIIVLSTSGTTPRLVSKYRPNCPIILVTRCPRAARFSHLYRGVFPFVFEKEPVSDWTDDVEARINFGIEKAKEFGILKKGDTYVSIQGFKAGAGHSNTLQVSTV
With B1, the binding result is listed as “binds”.

B2: Recombinant phosphomimicking Cdc19-3E (S56E, S70E, S175E), Strep-tagged (SUMO tag cleaved off) (natural protein)
chain: B1 chain with S56E, S70E, S175E
As for B2, the binding result is reported as “binds”.
